Experimental data reported in the supplement of paper PMC9233669.
Variants at the floor of the assay were thinned out.

Tests used:
biotinyl-Phe-oxazolone = assay: self-aminoacylation, catalytic enhancement (BFO) (fold over background); higher = more active; k-Seq, kA / k0A0; sequences stand for … in GGGAAUGGAUCCACAUCUACGAAUUC…UUCACUGCAGACUUGACGAAGCUG
Procedure, shortened: (§1)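 Working in 50 μL HEPES/NaCl/KCl/MgCl2/CaCl2 buffer with 5% acetonitrile at pH 6.9–7.0, mutagenized RNA pools (0.43 μM; 21-nt variable region) were reacted with 2–1250 μM of each biotinyl-aminoacyl-oxazolone for 90 minutes at room temperature. Streptavidin capture followed, with quantification by triplicate qPCR and Illumina sequencing. Catalytic enhancement is reported as median kA over the uncatalyzed rate, the low-activity peak of a bimodal Gaussian fit to the data.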

biotinyl-Ile-oxazolone = assay: self-aminoacylation, catalytic enhancement (BIO) (fold over background); higher = more active; k-Seq, kA / k0A0; sequences stand for … in GGGAAUGGAUCCACAUCUACGAAUUC…UUCACUGCAGACUUGACGAAGCUG
Procedure, shortened: as §1

biotinyl-Met-oxazolone = assay: self-aminoacylation, catalytic enhancement (BMO) (fold over background); higher = more active; k-Seq, kA / k0A0; sequences stand for … in GGGAAUGGAUCCACAUCUACGAAUUC…UUCACUGCAGACUUGACGAAGCUG
Procedure, shortened: as §1

biotinyl-Val-oxazolone = assay: self-aminoacylation, catalytic enhancement (BVO) (fold over background); higher = more active; k-Seq, kA / k0A0; sequences stand for … in GGGAAUGGAUCCACAUCUACGAAUUC…UUCACUGCAGACUUGACGAAGCUG
Procedure, shortened: as §1

biotinyl-Leu-oxazolone = assay: self-aminoacylation, catalytic enhancement (BLO) (fold over background); higher = more active; k-Seq, kA / k0A0; sequences stand for … in GGGAAUGGAUCCACAUCUACGAAUUC…UUCACUGCAGACUUGACGAAGCUG
Procedure, shortened: as §1

biotinyl-Trp-oxazolone = assay: self-aminoacylation, catalytic enhancement (BWO) (fold over background); higher = more active; k-Seq, kA / k0A0; sequences stand for … in GGGAAUGGAUCCACAUCUACGAAUUC…UUCACUGCAGACUUGACGAAGCUG
Procedure, shortened: as §1

Sequence | self-aminoacylation (biotinyl-Phe-oxazolone) | self-aminoacylation (biotinyl-Ile-oxazolone) | self-aminoacylation (biotinyl-Met-oxazolone) | self-aminoacylation (biotinyl-Val-oxazolone) | self-aminoacylation (biotinyl-Leu-oxazolone) | self-aminoacylation (biotinyl-Trp-oxazolone)
AUCCACCUAAGUCAUCGGGUG [Fam2.2 aminoacylation ribozyme variant] | 90.6 | 6.14 | 11.3 | 7.25 | 14.4 | 9.42
AUCCACCUAGGACAUCGGGUG [Fam2.2 aminoacylation ribozyme variant] | 39.9 | 3.12 | 3.23 | 3.38 | 4.49 | 5.03
AUCCACCUAGGUCAUCAGGUG [Fam2.2 aminoacylation ribozyme variant] | 4.11 | 1.51 | 1.74 | 1.74 | 1.82 | 2.64
AUCCACCUAGGUCAUCCGGUG [Fam2.2 aminoacylation ribozyme variant] | 46.1 | 5.53 | 7.38 | 6.56 | 7.31 | 7.83
AUCCACCUAGGUCAUCGGGGG [Fam2.2 aminoacylation ribozyme variant] | 2.86 | 4.14 | 3.97 | 2.77 | 5.3 | 4.13
AUCCACCUGGGUCAUCGGGUG [Fam2.2 aminoacylation ribozyme variant] | 41.8 | 4.48 | 9.47 | 6.05 | 8.16 | 7.25
AUCCUCCUAGGUCAUCGGGUG [Fam2.2 aminoacylation ribozyme variant] | 68.5 | 6.79 | 11.8 | 7.4 | 12.9 | 9.65
AUCCUUCAAACAAUCGGUCUG [Fam1A.1 aminoacylation ribozyme variant] | 4.27 | 0.755 | 0.822 | 0.688 | 0.809 | 3.9
AUGAACCUAGGUCAUCGGGUG [Fam2.2 aminoacylation ribozyme variant] | 24.6 | 4.29 | 5.97 | 4.28 | 7.54 | 6.44
AUGACCCGGGUCAUCGAGUGA [Fam2.1 aminoacylation ribozyme variant] | 46.3 | 3.9 | 6.73 | 3.55 | 7.47 | 6.53
AUGACCCUAGUCAUCGAGUGA [Fam2.1 aminoacylation ribozyme variant] | 26.6 | 3.13 | 6.07 | 3.27 | 5.61 | 7.34
AUGACCCUCGUCAUCGAGUGA [Fam2.1 aminoacylation ribozyme variant] | 14.7 | 2.05 | 3.35 | 2.06 | 3.43 | 3.73
AUGACCCUGGUAAUCGAGUGA [Fam2.1 aminoacylation ribozyme variant] | 23.9 | 2.7 | 5.08 | 2.8 | 5.39 | 6.37
AUGACCCUGGUCAUCGAAUGA [Fam2.1 aminoacylation ribozyme variant] | 6.66 | 1.59 | 1.46 | 1.35 | 2.06 | 1.44
AUGACCCUGGUCAUUGAGUGA [Fam2.1 aminoacylation ribozyme variant] | 49.8 | 3.61 | 7.27 | 3 | 7.74 | 7.49
AUGACCCUGGUCGUCGAGUGA [Fam2.1 aminoacylation ribozyme variant] | 4.65 | 1.01 | 1.25 | 0.888 | 1.38 | 0.916
AUGACCCUGGUGAUCGAGUGA [Fam2.1 aminoacylation ribozyme variant] | 27.3 | 2.8 | 4.4 | 2.44 | 5.51 | 5
AUGACCCUUGUCAUCGAGUGA [Fam2.1 aminoacylation ribozyme variant] | 31.3 | 3.06 | 6.11 | 3.19 | 6.36 | 7
AUGACCUUGGUCAUCGAGUGA [Fam2.1 aminoacylation ribozyme variant] | 22.3 | 3.22 | 5.23 | 3.1 | 5.27 | 6.29
AUGAGCCUGGUCAUCGAGUGA [Fam2.1 aminoacylation ribozyme variant] | 31.3 | 3.82 | 5.66 | 3.71 | 5.69 | 6.33
AUGCACCUAGGUAAUCGGGUG [Fam2.2 aminoacylation ribozyme variant] | 10.9 | 2.07 | 2.56 | 1.94 | 2.31 | 3.25
AUGCACCUAGGUCAACGGGUG [Fam2.2 aminoacylation ribozyme variant] | 14.2 | 2.45 | 2.51 | 1.95 | 2.68 | 2.21
AUGCACCUAGGUCACCGGGUG [Fam2.2 aminoacylation ribozyme variant] | 25 | 3.86 | 3.97 | 3.68 | 3.59 | 4.46
AUGCACCUAGGUCAUCGGCUG [Fam2.2 aminoacylation ribozyme variant] | 11 | 1.99 | 2.3 | 2.2 | 1.83 | 2.5
AUGCACCUAGGUCAUCGGGUU [Fam2.2 aminoacylation ribozyme variant] | 5.22 | 3.66 | 4.43 | 3.24 | 4.54 | 4.05
AUGCACCUAGGUGAUCGGGUG [Fam2.2 aminoacylation ribozyme variant] | 30.7 | 4.96 | 4.8 | 3.71 | 5.11 | 6.5

Sequence | self-aminoacylation (biotinyl-Phe-oxazolone) | self-aminoacylation (biotinyl-Ile-oxazolone) | self-aminoacylation (biotinyl-Met-oxazolone) | self-aminoacylation (biotinyl-Val-oxazolone) | self-aminoacylation (biotinyl-Leu-oxazolone) | self-aminoacylation (biotinyl-Trp-oxazolone)
AUGCACCUAGUUCAUCGGGUG [Fam2.2 aminoacylation ribozyme variant] | 13.6 | 2.77 | 2.73 | 2.37 | 3.07 | 4.29
AUGCACGUAGGUCAUCGGGUG [Fam2.2 aminoacylation ribozyme variant] | 45.4 | 3.52 | 4.47 | 3.89 | 4.72 | 5.33
AUGUAUGCUAAUAGUCGCAAG [Fam3.1 aminoacylation ribozyme variant] | 3.25 | 1.62 | 1.67 | 1.39 | 1.14 | 1.95
AUGUGUGCUAAUAGUCGCAAG [Fam3.1 aminoacylation ribozyme variant] | 3.53 | 1.57 | 1.2 | 1.37 | 1.36 | 1.95
AUGUUUGCUAAUAGCCGCAAG [Fam3.1 aminoacylation ribozyme variant] | 2.62 | 1.28 | 0.997 | 1.04 | 1.14 | 1.36
AUGUUUGCUAAUAGUCACAAG [Fam3.1 aminoacylation ribozyme variant] | 5.37 | 1.24 | 1.17 | 1.01 | 1.07 | 2.35
AUGUUUGCUAAUAGUCGAAAG [Fam3.1 aminoacylation ribozyme variant] | 8.7 | 1.28 | 1.08 | 1.11 | 1.07 | 2.94
AUGUUUGCUAAUAGUCGCACG [Fam3.1 aminoacylation ribozyme variant] | 1.24 | 1.15 | 1.02 | 0.981 | 1.13 | 0.741
AUGUUUGCUAAUAGUCGCAGG [Fam3.1 aminoacylation ribozyme variant] | 2.47 | 1.54 | 1.76 | 1.33 | 1.8 | 1.95
AUGUUUGCUAAUAGUCGCAUG [Fam3.1 aminoacylation ribozyme variant] | 1.52 | 1.34 | 1.58 | 1.39 | 1.72 | 1.38
AUGUUUGCUAAUAGUCGCCAG [Fam3.1 aminoacylation ribozyme variant] | 1.53 | 1.26 | 1.37 | 1.29 | 1.51 | 1.76
AUGUUUGCUAAUGGUCGCAAG [Fam3.1 aminoacylation ribozyme variant] | 1.63 | 1.16 | 0.875 | 0.934 | 1.02 | 1.13
AUGUUUGCUGAUAGUCGCAAG [Fam3.1 aminoacylation ribozyme variant] | 3.84 | 1.81 | 1.1 | 1.37 | 1.33 | 1.38
AUGUUUUCUAAUAGUCGCAAG [Fam3.1 aminoacylation ribozyme variant] | 2.58 | 1.62 | 1.62 | 1.2 | 1.52 | 2.2
AUUAACAUAGGUCAUCGGGUG [Fam2.2 aminoacylation ribozyme variant] | 38 | 3.92 | 6.29 | 3.51 | 7 | 6.55
AUUAACAUGGUCAUCGAGUGA [Fam2.1 aminoacylation ribozyme variant] | 26.1 | 3.41 | 5.53 | 3.23 | 6.1 | 8.43
AUUAACCAAGGUCAUCGGGUG [Fam2.2 aminoacylation ribozyme variant] | 43.2 | 3.81 | 7.25 | 4.19 | 9.4 | 6.8
AUUAACCUAGGUAAUCGGGUG [Fam2.2 aminoacylation ribozyme variant] | 12.5 | 1.78 | 2.62 | 1.66 | 2.3 | 2.42
AUUAACCUAGGUCACCGGGUG [Fam2.2 aminoacylation ribozyme variant] | 23.6 | 3.19 | 4.09 | 3.13 | 4.52 | 5.15
AUUAACCUAGGUCAGCGGGUG [Fam2.2 aminoacylation ribozyme variant] | 19 | 2.5 | 2.59 | 2.12 | 4.4 | 2.72
AUUAACCUAGGUCAUAGGGUG [Fam2.2 aminoacylation ribozyme variant] | 1.19 | 1.29 | 1.41 | 1.36 | 1.74 | 2.08
AUUAACCUAGGUCAUCAGGUG [Fam2.2 aminoacylation ribozyme variant] | 1.4 | 1.24 | 1.35 | 1.48 | 1.47 | 1.43
AUUAACCUAGGUCAUCGGGUU [Fam2.2 aminoacylation ribozyme variant] | 40.5 | 5.18 | 9.3 | 4.78 | 12.7 | 6.05
AUUAACCUAGGUCAUCGGUUG [Fam2.2 aminoacylation ribozyme variant] | 3.47 | 1.02 | 1.07 | 1.09 | 1.19 | 1.05
AUUAACCUAGGUCAUGGGGUG [Fam2.2 aminoacylation ribozyme variant] | 22.6 | 2.28 | 3.3 | 2.38 | 4.82 | 3.44
